These are literature values, as cited in article PMC3674867.

The Kd is the constant that tells how readily two partners part at equilibrium.

The target in this data set is caspase-3 (Homo sapiens) (UniProt P42574). Nature of the data set: solid phase binding assay.
UniProt P42574, sequence (P42574 176-277): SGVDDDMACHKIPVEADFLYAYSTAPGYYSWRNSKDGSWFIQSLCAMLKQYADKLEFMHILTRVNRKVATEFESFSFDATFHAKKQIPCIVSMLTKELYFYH

On to PAI-1 (from UniProt P05121), for which the Kd is 3 nM.
